Test results from patent publication US20170252458A1 (EISAI R AND D MANAGEMENT, published 2017).
“And” between values parts separate entries of the source, which are not always exact repeats. Equal values may be shown once.

Biological target: T1, Recombinant human folate receptor alpha (human, UniProt P15328 25-234)
T1 construct: also called FRA; FR
Assay: ELISA, recombinant human FRA coated
Protocol: Coating solution was discarded and the plates were washed three times using 1× PBS with 0.05% Tween-20 (PBST) buffer. Plates were blocked in 300 μL blocking buffer (1% BSA in PBST) at room temperature for 2 hours on an orbital shaker. […] Blocking buffer was discarded and 100 μL/well of diluted antibody was added to the plates. Plates were incubated at room temperature for 2 hours on an orbital shaker. Antibody solution was discarded and plates were washed three times using PBST. 100 μL/well of goat-anti-human IgG (H+L)-HRP (1:10,000 dilution in blocking buffer) solution was added to the plates, and plates were incubated at room temperature for 1 hour on an orbital shaker. Secondary antibody solution was discarded and plates were washed three times using PBST. 100 μL/well of QuantaBlu fluorogenic peroxidase substrate working solution (Thermo, Cat No. 15169) was added to the plates, and plates were incubated at room temperature for 30 min. Fluorescence was read at excitation 325 nm/emission 420 nm using a SpectraMax M5 (Molecular Devices). Data was analyzed using SoftMaxPro 5.4.2 software with 4-parameter fitting.

T1 sequence (P15328 25-234 limits assumed): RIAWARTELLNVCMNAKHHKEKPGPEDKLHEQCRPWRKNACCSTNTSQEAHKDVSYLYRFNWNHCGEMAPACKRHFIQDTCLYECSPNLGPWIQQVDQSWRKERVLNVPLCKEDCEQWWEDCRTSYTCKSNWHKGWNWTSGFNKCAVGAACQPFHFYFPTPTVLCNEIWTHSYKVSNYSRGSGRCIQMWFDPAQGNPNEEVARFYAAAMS

B1: MORAb-003 (antibody, human IgG1, kappa, V domains shown)
VH: EVQLVESGGGVVQPGRSLRLSCSASGFTFSGYGLSWVRQAPGKGLEWVAMISSGGSYTYYADSVKGRFAISRDNAKNTLFLQMDSLRPEDTGVYFCARHGDDPAWFAYWGQGTPVTVSS
VL: DIQLTQSPSSLSASVGDRVTITCSVSSSISSNNLHWYQQKPGKAPKPWIYGTSNLASGVPSRFSGSGSGTDYTFTISSLQPEDIATYYCQQWSSYPYMYTFGQGTKVEIKR
notes: Humanized anti-human folate receptor alpha, unconjugated; also called farletuzumab
EC50: 0.00629 µg/mL and 0.04 nM

B2: MORAb003-ER1244623 (antibody, human IgG1, kappa, V domains shown)
VH: EVQLVESGGGVVQPGRSLRLSCSASGFTFSGYGLSWVRQAPGKGLEWVAMISSGGSYTYYADSVKGRFAISRDNAKNTLFLQMDSLRPEDTGVYFCARHGDDPAWFAYWGQGTPVTVSS
VL: DIQLTQSPSSLSASVGDRVTITCSVSSSISSNNLHWYQQKPGKAPKPWIYGTSNLASGVPSRFSGSGSGTDYTFTISSLQPEDIATYYCQQWSSYPYMYTFGQGTKVEIKR
modifications: NHS-PEG3-triazole-PEG3-sulfonamide-pAB-eribulin on lysines, sites not given
notes: Antibody-drug conjugate; DAR 0.55 (LC-MS)
EC50: 0.00454 µg/mL and 0.03 nM

B3: MORAb003-DBCO-ER1237508 (antibody, human IgG1, kappa, V domains shown)
VH: EVQLVESGGGVVQPGRSLRLSCSASGFTFSGYGLSWVRQAPGKGLEWVAMISSGGSYTYYADSVKGRFAISRDNAKNTLFLQMDSLRPEDTGVYFCARHGDDPAWFAYWGQGTPVTVSS
VL: DIQLTQSPSSLSASVGDRVTITCSVSSSISSNNLHWYQQKPGKAPKPWIYGTSNLASGVPSRFSGSGSGTDYTFTISSLQPEDIATYYCQQWSSYPYMYTFGQGTKVEIKR
modifications: NHS-PEG4-DBCO on lysines, then azide-PEG3-disulfide-pAB-eribulin by SPAAC; sites not given
notes: Antibody-drug conjugate
EC50: 0.0241 µg/mL and 0.16 nM

B4: MORAb003-ER1237504 (antibody, human IgG1, kappa, V domains shown)
VH: EVQLVESGGGVVQPGRSLRLSCSASGFTFSGYGLSWVRQAPGKGLEWVAMISSGGSYTYYADSVKGRFAISRDNAKNTLFLQMDSLRPEDTGVYFCARHGDDPAWFAYWGQGTPVTVSS
VL: DIQLTQSPSSLSASVGDRVTITCSVSSSISSNNLHWYQQKPGKAPKPWIYGTSNLASGVPSRFSGSGSGTDYTFTISSLQPEDIATYYCQQWSSYPYMYTFGQGTKVEIKR
modifications: Mal-PEG4-triazole-PEG3-disulfide-pAB-eribulin on interchain cysteines, sites not given
notes: Antibody-drug conjugate
EC50: 0.0298 µg/mL and 0.2 nM

B5: MORAb003-ER1159569 (Lot NB3073-88L) (antibody, human IgG1, kappa, V domains shown)
VH: EVQLVESGGGVVQPGRSLRLSCSASGFTFSGYGLSWVRQAPGKGLEWVAMISSGGSYTYYADSVKGRFAISRDNAKNTLFLQMDSLRPEDTGVYFCARHGDDPAWFAYWGQGTPVTVSS
VL: DIQLTQSPSSLSASVGDRVTITCSVSSSISSNNLHWYQQKPGKAPKPWIYGTSNLASGVPSRFSGSGSGTDYTFTISSLQPEDIATYYCQQWSSYPYMYTFGQGTKVEIKR
modifications: Mal-PEG2-Val-Cit-pAB-eribulin on interchain cysteines, sites not given
notes: Antibody-drug conjugate; also called MORAb-003-VCP-eribulin
EC50: 0.0226 µg/mL and 0.15 nM

B6: MORAb003-ER1231691 (antibody, human IgG1, kappa, V domains shown)
VH: EVQLVESGGGVVQPGRSLRLSCSASGFTFSGYGLSWVRQAPGKGLEWVAMISSGGSYTYYADSVKGRFAISRDNAKNTLFLQMDSLRPEDTGVYFCARHGDDPAWFAYWGQGTPVTVSS
VL: DIQLTQSPSSLSASVGDRVTITCSVSSSISSNNLHWYQQKPGKAPKPWIYGTSNLASGVPSRFSGSGSGTDYTFTISSLQPEDIATYYCQQWSSYPYMYTFGQGTKVEIKR
modifications: NHS-PEG2-Ala-Ala-Asn-pAB-eribulin on lysines, sites not given
notes: Antibody-drug conjugate; DAR 0.37 (LC-MS)
EC50: 0.0115 µg/mL and 0.08 nM

B7: MORAb003-ER1242288 (antibody, human IgG1, kappa, V domains shown)
VH: EVQLVESGGGVVQPGRSLRLSCSASGFTFSGYGLSWVRQAPGKGLEWVAMISSGGSYTYYADSVKGRFAISRDNAKNTLFLQMDSLRPEDTGVYFCARHGDDPAWFAYWGQGTPVTVSS
VL: DIQLTQSPSSLSASVGDRVTITCSVSSSISSNNLHWYQQKPGKAPKPWIYGTSNLASGVPSRFSGSGSGTDYTFTISSLQPEDIATYYCQQWSSYPYMYTFGQGTKVEIKR
modifications: NHS-PEG9-Val-Cit-pAB-eribulin on lysines, sites not given
notes: Antibody-drug conjugate preparation; DAR 0.00 (LC-MS)
EC50: 0.0144 µg/mL and 0.1 nM

B8: MORAb003-ER1159569 (Lot NB3142-62A) (antibody, human IgG1, kappa, V domains shown)
VH: EVQLVESGGGVVQPGRSLRLSCSASGFTFSGYGLSWVRQAPGKGLEWVAMISSGGSYTYYADSVKGRFAISRDNAKNTLFLQMDSLRPEDTGVYFCARHGDDPAWFAYWGQGTPVTVSS
VL: DIQLTQSPSSLSASVGDRVTITCSVSSSISSNNLHWYQQKPGKAPKPWIYGTSNLASGVPSRFSGSGSGTDYTFTISSLQPEDIATYYCQQWSSYPYMYTFGQGTKVEIKR
modifications: Mal-PEG2-Val-Cit-pAB-eribulin on interchain cysteines, sites not given
notes: as for B5
EC50: 0.12 nM and 0.0182 µg/mL

B9: MORAb003-PEG4-eribulin (antibody, human IgG1, kappa, V domains shown)
VH: EVQLVESGGGVVQPGRSLRLSCSASGFTFSGYGLSWVRQAPGKGLEWVAMISSGGSYTYYADSVKGRFAISRDNAKNTLFLQMDSLRPEDTGVYFCARHGDDPAWFAYWGQGTPVTVSS
VL: DIQLTQSPSSLSASVGDRVTITCSVSSSISSNNLHWYQQKPGKAPKPWIYGTSNLASGVPSRFSGSGSGTDYTFTISSLQPEDIATYYCQQWSSYPYMYTFGQGTKVEIKR
modifications: Mal-PEG4-eribulin (non-cleavable) on interchain cysteines, sites not given
notes: Antibody-drug conjugate
EC50: 0.00931 µg/mL and 0.06 nM
